# Reference: patent US20060205032
# B1: GST-SLIM (bacterially expressed wild-type GST-hSLIM) (protein)
# chain: MALTVDVAGPAPWGFRITGGRDFHTPIMVTKVAERGKAKDADLRPGDIIVAINGESAEGMLHAEAQSKIRQSPSPLRLQLDRSQATSPGQTNGDSSLEVLATRFQGSVRTYTESQSSLRSSYSSPTSLSPRAGSPFSPPPSSSSLTGEAAISRSFQSLACSPGLPAADRLSYSGRPGSRQAGLGRAGDSAVLVLPPSPGPRSSRPSMDSEGGSLLLDEDSEVFKMLQENREGRAAPRQSSSFRLLQEALEAEERGGTPAFLPSSLSPQSSLPASRALATPPKLHTCEKCSTSIANQAVRIQEGRYRHPGCYTCADCGLNLKMRGHFWVGDELYCEKHARQRYSAPATLSSRA
# B2: GST-Δ52-hSLIM (protein)
# chain: MALTVDVAGPAPWGFRITGGRDFHTPIMVTKVAERGKAKDADLRPGDIIVAINGESAEGMLHAEAQSKIRQSPSPLRLQLDRSQATSPGQTNGDSSLEVLATRFQGSVRTYTESQSSLRSSYSSPTSLSPRAGSPFSPPPSSSSLTGEAAISRSMDSEGGSLLLDEDSEVFKMLQENREGRAAPRQSSSFRLLQEALEAEERGGTPAFLPSSLSPQSSLPASRALATPPKLHTCEKCSTSIANQAVRIQEGRYRHPGCYTCADCGLNLKMRGHFWVGDELYCEKHARQRYSAPATLSSRA
# Tests used:
# [1] = target: T1, recombinant human STAT1 (Biosource), P42224
# T1 chain: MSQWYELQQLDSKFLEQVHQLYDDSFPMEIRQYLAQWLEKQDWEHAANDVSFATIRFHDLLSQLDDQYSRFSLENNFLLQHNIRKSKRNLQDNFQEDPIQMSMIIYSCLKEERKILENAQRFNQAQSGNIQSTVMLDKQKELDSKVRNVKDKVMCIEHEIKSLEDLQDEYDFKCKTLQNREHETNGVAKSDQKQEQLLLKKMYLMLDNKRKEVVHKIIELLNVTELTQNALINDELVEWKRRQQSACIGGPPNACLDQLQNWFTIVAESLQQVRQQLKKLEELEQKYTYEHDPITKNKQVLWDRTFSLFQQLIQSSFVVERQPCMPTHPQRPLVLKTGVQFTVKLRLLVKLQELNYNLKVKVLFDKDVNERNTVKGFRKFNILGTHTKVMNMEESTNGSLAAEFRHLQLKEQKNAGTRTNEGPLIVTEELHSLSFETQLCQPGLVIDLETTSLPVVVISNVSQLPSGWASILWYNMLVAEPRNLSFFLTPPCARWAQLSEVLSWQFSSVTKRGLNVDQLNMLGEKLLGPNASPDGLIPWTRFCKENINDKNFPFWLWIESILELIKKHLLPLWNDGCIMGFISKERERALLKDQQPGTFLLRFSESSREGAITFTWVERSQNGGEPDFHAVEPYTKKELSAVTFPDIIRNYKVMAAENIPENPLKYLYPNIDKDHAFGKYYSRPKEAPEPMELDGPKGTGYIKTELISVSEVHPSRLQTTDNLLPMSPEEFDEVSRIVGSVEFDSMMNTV
# [2] = target: UbcH5a (human recombinant E2), P51668
# Chain of UbcH5a (human recombinant E2), P51668 (P51668 whole entry): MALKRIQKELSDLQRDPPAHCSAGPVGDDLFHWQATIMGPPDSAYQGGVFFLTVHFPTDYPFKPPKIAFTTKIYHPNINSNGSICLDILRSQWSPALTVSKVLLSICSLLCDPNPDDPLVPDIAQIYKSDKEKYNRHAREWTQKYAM
Protein,"ubiquitination of STAT1 (ubiquitin transfer assay, Avidin-HRP blot) [1]",ubiquitination of WT-Δ52-hSLIM with different human E2 enzymes (Avidin-HRP blot) [2]
B1,WT-SLIM mediates the ubiquitination of STAT1 and demonstrates strong E3 ligase activity towards both STAT1 and hSLIM,–
B2,"WT-Δ52-hSLIM demonstrates E3 ligase activity by transferring ubiquitin to a biologically relevant downstream substrate, STAT1",WT-A52-hSLIM demonstrates preferential ubiquitination in the presence of UbcH5a
